According to patent US20250376519A1 (JIANGSU HENGRUI PHARMACEUTICALS, published 2025):

T1: human DLL3 on cells (human, UniProt Q9NYJ7 27-618)
T1 construct: Endogenous on H1184 and SHP77; Cell line is named under assay; also called H1184; DLL3/H82
T1 sequence: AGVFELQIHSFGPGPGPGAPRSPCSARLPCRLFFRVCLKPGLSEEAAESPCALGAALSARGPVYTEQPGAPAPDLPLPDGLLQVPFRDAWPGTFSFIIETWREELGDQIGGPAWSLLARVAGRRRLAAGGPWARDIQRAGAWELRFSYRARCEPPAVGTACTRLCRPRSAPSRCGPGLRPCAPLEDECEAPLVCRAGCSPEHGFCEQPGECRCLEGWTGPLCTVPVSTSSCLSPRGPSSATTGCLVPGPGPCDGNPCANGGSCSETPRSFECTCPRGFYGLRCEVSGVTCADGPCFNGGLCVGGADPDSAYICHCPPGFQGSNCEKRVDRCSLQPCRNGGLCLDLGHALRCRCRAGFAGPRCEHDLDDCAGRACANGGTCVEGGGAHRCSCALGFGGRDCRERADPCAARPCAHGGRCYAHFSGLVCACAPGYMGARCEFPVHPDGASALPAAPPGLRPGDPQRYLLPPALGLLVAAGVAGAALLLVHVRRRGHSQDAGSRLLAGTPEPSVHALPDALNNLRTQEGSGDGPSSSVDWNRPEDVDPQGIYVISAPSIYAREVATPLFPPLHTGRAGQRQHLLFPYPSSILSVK


Tests used:
[1] = target: T1, human DLL3 on cells; experiment: flow cytometry, hDLL3/CHO-s cells
Experimental: The plates were centrifuged at 300 g for 5 min, and the supernatant was removed. Different concentrations of test antibodies were added at 100 μL/well. The plates were incubated in the dark in a refrigerator at 4° C. for 1 h. After 3 centrifugal washes at 300 g, working concentrations of APC anti-human IgG Fc (BioLegend, 410712) or PE F(ab′)2-goat anti-human IgG (invitrogen, H10104) were added. The plates were incubated in the dark in a refrigerator at 4° C. for 40 min. After 3 centrifugal washes at 300 g, the geometric mean fluorescence intensity was measured on an Invitrogen flow cytometer, and the EC50 values for the binding of the antibodies to DLL3-expressing cells were calculated.

[2] = target: T1, human DLL3 on cells; experiment: cell-based or functional assay
[3] = target: T2, hDLL3 (ECD)-strep twin, biotinylated (human, UniProt Q9NYJ7 27-492, biotinylated); experiment: ELISA, biotinylated antigen on streptavidin
T2 construct: The entry carries a signal peptide (marked only by a dotted line); also called Biotinylated DLL3 antigen; human DLL3 protein
Experimental: Streptavidin (abcam, ab136200, 1 μg/mL) was plated at 100 μL/well, and the plates were incubated overnight at 4° C. The plates were washed 3 times with 250 μL of PBST solution (PBS containing 0.1% Tween 20) per well. The plates were blocked with 250 μL of 5% milk per well at 37° C. for 2 h. The plates were washed 3 times with 250 μL of PBST solution per well. Biotinylated DLL3 antigen (1 μg/mL) (SEQ ID NO: 9) was added, and the plates were incubated at 37° C. for 1 h. The plates were washed 3 times with 250 μL of PBST solution per well. Antibodies (maximum concentration 400 nM, serially diluted 4-fold) were formulated, and incubation was performed at 37° C. for 1 h. The plates were washed 6 times with 250 μL of PBST solution per well. […] The plates were washed 6 times with 250 μL of PBST solution per well. TMB (KPL, 5120-0077) substrate solution was added at 100 μL/well, and color development was performed at room temperature for 5-10 min. 1 M H₂SO₄ was added at 100 μL/well to stop the color development, and microplate reader (Molecular Devices, VERSA max) readings at 450 nm were taken.

[4] = target: T1, human DLL3 on cells; experiment: cell-based or functional assay; remark: listed apart in the source
[5] = target: T1, human DLL3 on cells; experiment: cell-based or functional assay; remark: listed apart in the source
[6] = target: T3, human CD3D&3E (ACRO, CDD-H52W1) (human, UniProt P04234 22-105; P07766 23-126); experiment: SPR Biacore 8K, Ab captured on Protein A
T3 construct: bought CD3 delta/epsilon protein
Outline: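 Antibodies captured on a Protein A chip for 18 s; DLL3 or CD3D&3E antigen flowed 180 s, then 600 s dissociation, with real-time detection. Regeneration used 10 mM glycine-HCl pH 1.5 between cycles. Kinetics were obtained by 1:1 model fitting.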

T3 sequence (P04234 22-105, chain 1 of 2): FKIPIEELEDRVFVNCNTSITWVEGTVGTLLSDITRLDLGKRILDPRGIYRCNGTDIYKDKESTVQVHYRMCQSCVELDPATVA
T3 sequence (P07766 23-126, chain 2 of 2): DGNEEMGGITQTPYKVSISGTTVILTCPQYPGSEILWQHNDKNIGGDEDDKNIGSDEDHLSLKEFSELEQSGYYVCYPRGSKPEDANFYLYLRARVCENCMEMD

Row | EC50 [1] | EC50 [3] | EC50, Jurkat Lucia NFAT reporter with H82/DLL3 cells [4] | Kd [6] | koff [6] | kon [6] | Fold changes in activation, Jurkat Lucia NFAT reporter with H82/DLL3 cells [4] | Binder | IC50, PBMC killing of H1184/lucG cells [2] | Imax (%), PBMC killing of H1184/lucG cells [2] | IC50, PBMC killing of SHP77/lucG cells [5] | Imax (%), PBMC killing of SHP77/lucG cells [5]
1 | 4.52 nM | 0.07 nM | 0.00636 nM |  |  |  |  | hu110-I2C-Y body (bispecific antibody, Format 2 (Y body: DLL3 Fab-Fc hole + CD3 scFv-Fc knob)) light: NIVMTQSPKSLAVSLGERATINCKASENVGIFVSWYQQKPGQSPKLLIYGASNRYTGVPDRFSGSGSATDFTLTISSLQAEDVADYYCGQSHSYPLTFGQGTKLEIKRTVAAPSVFIFPPSDEQLKSGTASVVCLLNNFYPREAKVQWKVDNALQSGNSQESVTEQDSKDSTYSLSSTLTLSKADYEKHKVYACEVTHQGLSSPVTKSFNRGEC heavy: EVQLVQSGAEVKKPGASVKVSCKTSGYTFTDYYMNWVRQAPGQSLEWMGIINPYQGGTSYTQKFKGRVTITVDKSASTAYMELSSLRSEDTAVYYCARHFYDSSYLTYSTMDYWGQGTTVTVSSASTKGPSVFPLAPSSKSTSGGTAALGCLVKDYFPEPVTVSWNSGALTSGVHTFPAVLQSSGLYSLSSVVTVPSSSLGTQTYICNVNHKPSNTKVDKKVEPKSCDKTHTCPPCPAPEAAGGPSVFLFPPKPKDTLMISRTPEVTCVVVDVSHEDPEVKFNWYVDGVEVHNAKTKPREEQYNSTYRVVSVLTVLHQDWLNGKEYKCKVSNKALPAPIEKTISKAKGQPREPQVCTLPPSREEMTKNQVSLSCAVKGFYPSDIAVEWESNGQPENNYKTTPPVLDSDGSFFLVSKLTVDKSRWQQGNVFSCSVMHEALHNHYTQKSLSLSPGK not shown | 0.00642 nM | 98% | 0.0338 nM | 100%
2 | 5.07 nM | 0.11 nM | 0.0177 nM | 46.7 nM | 0.00749 s⁻¹ | 160000 M⁻¹ s⁻¹ | 18 fold | hu110-S107E-hot Ig (bispecific antibody, Format 1 (Hot-Ig, Titin/Obscurin-replaced DLL3 Fab), DLL3 x CD3) light 1: NIVMTQSPKSLAVSLGERATINCKASENVGIFVSWYQQKPGQSPKLLIYGASNRYTGVPDRFSGSGSATDFTLTISSLQAEDVADYYCGQSHSYPLTFGQGTKLEIKGGGGSSGAPRFLTRPKASVVSVGKDATLSCQIVGNPFPQVSWEKDKQPVTAGVRFRLAQDGDLYRLKILDLQLSDSGQYVCRARNAHGEAFACLGLQVDAEA heavy 1: EVQLVQSGAEVKKPGASVKVSCKTSGYTFTDYYMNWVRQAPGQSLEWMGIINPYQGGTSYTQKFKGRVTITVDKSASTAYMELSSLRSEDTAVYYCARHFYDSSYLTYSTMDYWGQGTTVTVSSGGGGSGIPPKIECLPIDISIDEGKVLTVASAFTGEPTPEVTWSTGGRKIHSQEQGRFHIENTDDSTTLTIKDVQKQDGGLYTLTLRNEFGSDSATVNIHIRSIDKTHTCPPCPAPEAAGGPSVFLFPPKPKDTLMISRTPEVTCVVVDVSHEDPEVKFNWYVDGVEVHNAKTKPREEQYNSTYRVVSVLTVLHQDWLNGKEYKCKVSNKALPAPIEKTISKAKGQPREPQVCTLPPSREEMTKNQVSLSCAVKGFYPSDIAVEWESNGQPENNYKTTPPVLDSDGSFFLVSKLTVDKSRWQQGNVFSCSVMHEALHNHYTQKSLSLSPGK heavy 2: not shown light 2: not shown | 0.0295 nM | 92% |  | 
3 | 4.91 nM | 0.08 nM |  |  |  |  |  | hu110-I2C-hot Ig (bispecific antibody, Format 1 (Hot-Ig, Titin/Obscurin-replaced DLL3 Fab), DLL3 x CD3) light 1: NIVMTQSPKSLAVSLGERATINCKASENVGIFVSWYQQKPGQSPKLLIYGASNRYTGVPDRFSGSGSATDFTLTISSLQAEDVADYYCGQSHSYPLTFGQGTKLEIKGGGGSSGAPRFLTRPKASVVSVGKDATLSCQIVGNPFPQVSWEKDKQPVTAGVRFRLAQDGDLYRLKILDLQLSDSGQYVCRARNAHGEAFACLGLQVDAEA heavy 1: EVQLVQSGAEVKKPGASVKVSCKTSGYTFTDYYMNWVRQAPGQSLEWMGIINPYQGGTSYTQKFKGRVTITVDKSASTAYMELSSLRSEDTAVYYCARHFYDSSYLTYSTMDYWGQGTTVTVSSGGGGSGIPPKIECLPIDISIDEGKVLTVASAFTGEPTPEVTWSTGGRKIHSQEQGRFHIENTDDSTTLTIKDVQKQDGGLYTLTLRNEFGSDSATVNIHIRSIDKTHTCPPCPAPEAAGGPSVFLFPPKPKDTLMISRTPEVTCVVVDVSHEDPEVKFNWYVDGVEVHNAKTKPREEQYNSTYRVVSVLTVLHQDWLNGKEYKCKVSNKALPAPIEKTISKAKGQPREPQVCTLPPSREEMTKNQVSLSCAVKGFYPSDIAVEWESNGQPENNYKTTPPVLDSDGSFFLVSKLTVDKSRWQQGNVFSCSVMHEALHNHYTQKSLSLSPGK heavy 2: not shown light 2: not shown |  |  | 0.0222 nM | 96%
